In US12077763B2, “RNA-based control of powdery mildew” (Greenlight Biosciences, Inc., priority 2021, dated 2024):

Test system: E. necator
Assay: Leaf disc assay, dry inoculum (settling tower), decrease in disease severity / hyphal growth (Example 2)
Conditions: decrease in disease severity (hyphal growth) relative to untreated control, value ± SE; for % decrease =/− SE TP1: time point 1 (untreated control hyphal growth ≥50%); for % decrease =/− SE TP2: time point 2

| Molecule | % decrease =/− SE TP1 [%] | % decrease =/− SE TP2 [%] |
| --- | --- | --- |
| GS3673 (nucleic acid) sense: AACUACUAACCUCGCCGCCCUAUAUAAGAAGAUGGGAACGCAAAAUCGUGUCAAUUUGAAAGAAAAGUUAAAAGGAAUGCGAAUCCAAAUCACACAUCUGCCCCCAAAGAUUAAUAAAACAACCGGAAAGGUUAUACCAAGGAUUAAAACCAUUCAAGGCCUUGCAAAUAUUAAUGAUGGUGCCAAAGAGGAGCAUCGACCAGAGGUUGCUGGAUAUGGUGCUGGUCCUCAAAAGGUCAAGUUUUGGGUAUCUGAAGAUACUGGCACUUCUAAAACCAGCCAAAAAAACCCCUUGCCAUCUAACACUUACAUCAGUGUAUAUGAUUACUUCAAAAAAAGAUACCCAAAGAUUGAAUUGGAUCCAAUAAAUCCUGUAGUUAAUGUUGGAAACAGUGAA antisense: UUCACUGUUUCCAACAUUAACUACAGGAUUUAUUGGAUCCAAUUCAAUCUUUGGGUAUCUUUUUUUGAAGUAAUCAUAUACACUGAUGUAAGUGUUAGAUGGCAAGGGGUUUUUUUGGCUGGUUUUAGAAGUGCCAGUAUCUUCAGAUACCCAAAACUUGACCUUUUGAGGACCAGCACCAUAUCCAGCAACCUCUGGUCGAUGCUCCUCUUUGGCACCAUCAUUAAUAUUUGCAAGGCCUUGAAUGGUUUUAAUCCUUGGUAUAACCUUUCCGGUUGUUUUAUUAAUCUUUGGGGGCAGAUGUGUGAUUUGGAUUCGCAUUCCUUUUAACUUUUCUUUCAAAUUGACACGAUUUUGCGUUCCCAUCUUCUUAUAUAGGGCGGCGAGGUUAGUAGUU | 34 ± 4 | 29 ± 6 |
| GS1814: dsRNA trigger SEQ ID NO 161; gene target Importin subunit beta-3 (nucleic acid) DNA: TTATTGGTGGTAGAATGTTCAAAACCTCTGATATAAGTTCATAGTATTTTTGCTTGGATTTTTTGTTGAGACTCCTGAAGAATGAAGCGAAAGCTTCCATAGCGGCCAGTCGGACTGTCACGTCATCATCCTTAAATCCCTTGGTAAAAGCAGAAAGAACAGTATCTTCATGCTGCTTTTCGATTATTCTAGGAGTTGTTGAGAAGATTCTATAGGCAATCTCACGTTGGCCCATCACTTGCGACATACTGAGTGTAAAGAGAACACCTAGAATTTCGGGCCATTGCAACTTATCATCGGAGTACTGCCTAGCGACTTCTGCGACTGCATCACCTATCTTATTTCTTGTAGACGTTTCGGTTTCAGAGCTAAGGGCTTCAAGAAGTTTTTGTCTGATAATATGTCCTTGTTCTGTCGGCAAAGAGATAAATGTTTCCACTGACTGATTATTTTGTAATTTTCGAGTCTTTGAAGCTATCCGTCTGAAGATGACTGCAGCAAAAGAGCGTTTCGCAGGATCGTTTGAGCCCTGAATTTGTTCCACCAGGCCAATCAAGAGCATCTCTGGTTTAAGCAACGTCCAATTATTCGTTAAAT | 8 ± 4 | – |
| GS3917 (nucleic acid) sense: CCAGGCUAAAUCUGUGCUCCAAACACAGUCAGUAAUACAGACUUUAAUUGCUGAGUGUUUAUCUUUGGGGAAAACAAAAAUGAUUAUUGAUCUCUCCUCGAAUAGUGGAGGUAAUUUGGUCGUUGGUUAUGACACAUUCCGACAAUUUUUCCCUACCAUUGAACAGCCAGGUUAUUCACGAUUUCGAUUACACGAGGCGCUAAAAAUUAUUACGAAACAGAUCUCGAAAAUCGCAUCGAAUUUCUCUUUUACAAGUACAAACCCCACUGAUUAUGAUUAUUACCAAACUCCGUUUAAUUAUAGAUUCGAUCUAAAUGAAACCAAUGAAAAAUUUCUUAGCUACGAGGAUAAAUUCAGUCCAAGAAAAUUUAAUGGUGAUGAAUUCACUAGCAAUAUGA antisense: UCAUAUUGCUAGUGAAUUCAUCACCAUUAAAUUUUCUUGGACUGAAUUUAUCCUCGUAGCUAAGAAAUUUUUCAUUGGUUUCAUUUAGAUCGAAUCUAUAAUUAAACGGAGUUUGGUAAUAAUCAUAAUCAGUGGGGUUUGUACUUGUAAAAGAGAAAUUCGAUGCGAUUUUCGAGAUCUGUUUCGUAAUAAUUUUUAGCGCCUCGUGUAAUCGAAAUCGUGAAUAACCUGGCUGUUCAAUGGUAGGGAAAAAUUGUCGGAAUGUGUCAUAACCAACGACCAAAUUACCUCCACUAUUCGAGGAGAGAUCAAUAAUCAUUUUUGUUUUCCCCAAAGAUAAACACUCAGCAAUUAAAGUCUGUAUUACUGACUGUGUUUGGAGCACAGAUUUAGCCUGG | – | 29 ± 12 |
| GS3919 (nucleic acid) sense: AUUGCGCCAAAAUGUGAGGUAAGGAUUACUAACUUGCUGAGCUUGAAGAACUCAUCAACACCAGUAUCUUUAGCUGGUAAACAAGUUAAGCAAAUUCAAAGCAACUUACCAUCGACAAGUAAACAACUUGGAAUAUUUGCAAAAGAAAACAUCUUACCGGGCGAAUCAAUCCUUAAAGAGCUGUCAUAUCUCACUGUUAAUAAUAGACUCAAAGGCCCUCUAUGUGAUGCUUGUAGUGCUGAAAUUCCUUCUCUAUAUGAAACUGAAAGUACAGCAAUGAGCUGUCUCGAGUGUGAUGAAAUCUCAUUCUGUAGUGAUGAAUGCAAACGUGGAGCUGAGCUCGAAUAUCAUCCAGCAGUAUGUGGUAAAGAUGUUGAGACAAUUGGCAAGGACUGG antisense: CCAGUCCUUGCCAAUUGUCUCAACAUCUUUACCACAUACUGCUGGAUGAUAUUCGAGCUCAGCUCCACGUUUGCAUUCAUCACUACAGAAUGAGAUUUCAUCACACUCGAGACAGCUCAUUGCUGUACUUUCAGUUUCAUAUAGAGAAGGAAUUUCAGCACUACAAGCAUCACAUAGAGGGCCUUUGAGUCUAUUAUUAACAGUGAGAUAUGACAGCUCUUUAAGGAUUGAUUCGCCCGGUAAGAUGUUUUCUUUUGCAAAUAUUCCAAGUUGUUUACUUGUCGAUGGUAAGUUGCUUUGAAUUUGCUUAACUUGUUUACCAGCUAAAGAUACUGGUGUUGAUGAGUUCUUCAAGCUCAGCAAGUUAGUAAUCCUUACCUCACAUUUUGGCGCAAU | 23 ± 8 | 16 ± 9 |
| GS3916 (nucleic acid) sense: UUACAAUCCAUGCACCAUCCAUUAAGCGAAAAUAAACCAUCACUGUUGAGAAAGAAGUUAAACGUGAUUUGAGCUGUUAUAAGAGUUGAGUUUAACACAGUAUUUUGAAUUUGUUCUAAUCCUGUACUUGCUAUUUUUGAAUCUUCGAGUGAUGGUGCAAGAUCAACGUUGAAGUGUAUGAUAGAAUCUGGUGCAGUUUCGGUACUUAAGUACAGAUAUGUUGCAAUGCCAAAACUAUCACUAGCACCACGCAUAGCAAAGAAAAUAUCGGGAUUUGUAUCAUCACUGGCGAAAAUUUCCUGUCCAUCAGCAAGAAUAACAUCCAUACCAACGAUGUGAUCA antisense: UGAUCACAUCGUUGGUAUGGAUGUUAUUCUUGCUGAUGGACAGGAAAUUUUCGCCAGUGAUGAUACAAAUCCCGAUAUUUUCUUUGCUAUGCGUGGUGCUAGUGAUAGUUUUGGCAUUGCAACAUAUCUGUACUUAAGUACCGAAACUGCACCAGAUUCUAUCAUACACUUCAACGUUGAUCUUGCACCAUCACUCGAAGAUUCAAAAAUAGCAAGUACAGGAUUAGAACAAAUUCAAAAUACUGUGUUAAACUCAACUCUUAUAACAGCUCAAAUCACGUUUAACUUCUUUCUCAACAGUGAUGGUUUAUUUUCGCUUAAUGGAUGGUGCAUGGAUUGUAA | 11 ± 9 | – |
